# Assay results from patent US20160024208A1 (Regeneron, published 2016).
# T1: Native Nav1.7 (3-1) peptide, human (human)
# T1 construct: Synthetic peptide (Celtek), unbiotinylated; also called Human Nav1.7 3-1 native; Nav1.7 3-1 native peptide
# T1 peptide: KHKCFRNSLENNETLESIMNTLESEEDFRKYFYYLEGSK
# T2: N-Term Biotin Nav1.7 (3-1) peptide, mulatta (mulatta (monkey), not fully specified; N-terminal biotin attached via a G4S linker)
# T2 construct: Synthetic peptide; also called Mulatta Nav1.7 3-1 N-term biotin; monkey
# T2 peptide: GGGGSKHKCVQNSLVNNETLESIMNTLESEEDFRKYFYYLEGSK
# T3: N-Term Biotin Nav1.7 (3-1) peptide, mouse (mouse, not fully specified; N-terminal biotin attached via a G4S linker)
# T3 construct: Synthetic peptide; also called Mouse Nav1.7 3-1 N-term biotin
# T3 peptide: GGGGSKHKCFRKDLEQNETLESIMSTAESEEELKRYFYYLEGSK
# T4: Native Nav1.7 (3-1) peptide, rat (rat)
# T4 construct: Synthetic peptide; also called Rat Nav1.7 3-1 native
# T4 peptide: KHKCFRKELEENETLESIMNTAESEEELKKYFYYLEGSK
# T5: C-term Biotin Nav1.7 (3-1) peptide, human (human, not fully specified; C-terminal biotin attached via a G4S linker)
# T5 construct: Synthetic peptide; also called Human Nav1.7 3-1 C-term biotin
# T5 peptide: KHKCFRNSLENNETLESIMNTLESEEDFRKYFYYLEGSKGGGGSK
# T6: N-Term Biotin-Nav1.7 (3-1) peptide, human (human, not fully specified; N-terminal biotin attached via a G4S linker)
# T6 construct: ELISA peptide
# T6 peptide: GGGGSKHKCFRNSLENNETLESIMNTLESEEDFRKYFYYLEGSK
# B1: H4H438B (antibody, V domains shown)
# VH: QVQLQQWGAGLLTPSETLSLTCAVYGGSFSGHYWSWIRQPPGKGLEWIGEINPRGSTNYKPSLKSRVTISVDTSKNQFSLNLRSVTAADTAMYYCAREGNLAARLWFFDLWGRGTLVTVSS
# VL: DIQMTQSPSSLSASVGDRGTITCRTSQSIRSYLNWYQQKPGKAPKLLIYAASSLQSGVPSRFSGSGSGTDFTLTISSLQPEDFATYFCQQSYSSPFTFGQGTKVEIKR
# notes: Fully human antibody
# B2: H4H441B (antibody, V domains shown)
# VH: QVQLQQWGAGLLKPSETLSLTCAVYGGSFSGHYWTWIRQPPGKGLEWIGEINHRGNTNYNPSLKSRATISVDTSKNQFSLKLSSVTAADTAVYYCAREGSLAARLWFFDLWGRDTPVTVSS
# VL: DIQMTQSPSSLSASVGDRGTVTCRASQNIRTYLNWYQQKPGKAPKLLIYAASSLQSGVPSRFSGSGSGTDFTLTISSLQPEDFATYYCQQSYGTPYTFGQGTKVEIKR
# notes: Fully human antibody; the full pair is used
# B3: H4H385B (antibody, V domains shown)
# VH: QVQLVESGGGVVQPGRSLRLSCAASGFTFSSYGMHWVRQAPGKGLEWVALISYVGSNKHYADSVKGRFTISRDNSKNTLYLQMNSLRAEDTAVYYCAKSRGYSYGLDYWGQGTLVTVSS
# VL: DIQMTQSPDSLAVSLGERATINCKSSQTVLHSSNNQNNLVWYQQKPGQPPKLLIYWASTRESGVPDRFSGSGSGTDFTLTISSLQAEDVAIYYCQQYYSTPYTFGQGTKLEIKR
# notes: Fully human antibody
# B4: H4H391B (antibody, V domains shown)
# VH: QVQLVQSGGGVVQPGRSLRLSCAASGFTFSSYGMHWVRQAPGKGLEWVAVISYEGSNKHYADSVKGRFTISRDNSKNTLYLQMNSLRAEDTAVFYCAQSRGYSYGLGYWGQGTLVTVSS
# VL: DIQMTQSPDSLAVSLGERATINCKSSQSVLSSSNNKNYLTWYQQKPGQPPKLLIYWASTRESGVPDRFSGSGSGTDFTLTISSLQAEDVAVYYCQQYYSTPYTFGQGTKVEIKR
# B5: H4H368B (antibody, V domains shown)
# VH: EVQLVQSGGGVVQPGRSLRLSCAASGFTFSSYGMHWVRQAPGKGLEWVAVISYQESNKHYVDSVKGRFTISRDNSKNTLYLQMNSLRAEDTAVYYCAKSRGYSYGLGYWGQGTLVTVSS
# VL: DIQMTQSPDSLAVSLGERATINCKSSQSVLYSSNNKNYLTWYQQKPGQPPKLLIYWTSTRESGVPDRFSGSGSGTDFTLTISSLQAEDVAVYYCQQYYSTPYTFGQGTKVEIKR
# B6: H4H382B (antibody, V domains shown)
# VH: EVQLVQSGGGVVQPGRSLRLSCEASGFTFSSYGMHWVRQAPGKGLEWVAVISYDGSNKHYTDSVKGRFTISRDNSKNTLYLQMNSLRAEDTAVYFCAQSRGYSYGLGYWGQGTLVTVSS
# VL: DIQMTQSPDSLAVSLGERATINCKSSQSVLSSSNNENYLVWYQQKPGQPPKLLIYWASTREPGVPDRFSGGGSGTDFTLTISSLQAEDVAVYYCQQYHSIPYTFGQGTKVEIKR
# B7: H4H443B (antibody, V domains shown)
# VH: QVQLVESGGGLVQPGRSLRLSCAASGFTFDDYAMHWVRQVPGKGLEWVSGINWNSGSIGYADSVKGRFTISRDNAKNSLFLQMNSLRAEDTALYYCAKDIEYYDILTGYYSYYIMDVWGQGTTVTVSS
# VL: DIQMTQSPSFLSASVGDRVTITCWASQGISSYLAWYQQKPGKAPKLLIYASSTLQSGVPSRFSGSGSGTEFTLTISSLQPEDFATYYCQQFNSYPPTFGQGTKVEIKR
# B8: H4H434B (antibody, V domains shown)
# VH: QVQLVQSGGGLVQPGGSLRLSCAASGFTFSNYAMSWVRQAPGKGLEWVSAISGSGDNTYYADSVRGRFTISRDNSKNTLYLQMNSLRAEDTAIYYCAKDPHSSRWPGFFDLWGRGTLVTVSS
# VL: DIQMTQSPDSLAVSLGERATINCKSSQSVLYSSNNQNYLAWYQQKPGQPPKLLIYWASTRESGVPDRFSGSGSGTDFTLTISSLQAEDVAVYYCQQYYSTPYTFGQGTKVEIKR
# notes: Fully human antibody
# B9: H1H1025B (antibody, V domains shown)
# VH: QVQLVESGGGVVQPGRSLRLSCAASGFTFSNYGMHWVRQAPGKGLEWVAAIWFDGSNKKYVDSVKGRFTISRDNSKNTLYLQMNSLRAGDTAVYYCTRDRSGSFDYWGQGTLVTVSS
# VL: DIQLTQSPSSLSASVGDRVTITCRASQGIRNDLGWYQQKPGKAPKRLIYAASSLQSGVPSRFSGSGSGTEFTLTISSLQPEDFATYYCLQHNSYPCTFGQGTKVEIKR
# notes: Fully human antibody; 722/724 at r244); the full pair is used
# B10: H1H1068B (antibody, V domains shown)
# VH: QVQLVQSGAEVKKPGASVKVSCKASGYTFTSYGVSWVRQAPGQGLEWMGWISAYNGNTNYAQKLQGRVTMTTDTSTSTAYMELTSLRSDDTAVYYCARNWGDYWGQGTLVTVSS
# VL: not shown
# notes: as for B2
# B11: H4H395B (antibody, V domains shown)
# VH: EVQLVESGGGLVQPGGSLRLSCAASGFTFSSYGMSWVRQVPGKGLEWVSAISGSGGSTYYVDSVKGRFTISRDNFKNTLYLQMNSLRVEDTAVYYCAKDVGYCSTTSCRGDAFDVWGQGTMVTVSS
# VL: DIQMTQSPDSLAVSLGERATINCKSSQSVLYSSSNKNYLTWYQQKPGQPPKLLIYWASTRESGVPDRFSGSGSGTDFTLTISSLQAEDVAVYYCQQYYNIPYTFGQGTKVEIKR
# notes: Fully human antibody; 685/687 at r237); the full pair is used; also called H4H395N
# Legend:
# [1] = biological target: full-length human Nav1.7 fused at its N-terminus to GFP, expressed in HEK293 cells (human, UniProt Q15858 1-1988); assay: cell-based or functional assay
# [2] = biological target: T1, Native Nav1.7 (3-1) peptide, human; assay: SPR, captured antibody, peptide analyte
# Method: (§1) The binding affinities of anti-Naᵥ 1.7 antibodies to Naᵥ 1.7 loop peptides were determined by Biacore. For monovalent kinetic experiments, antibodies were captured through the Fc region via a goat anti-Fc-coupled biosensor surface, and the peptides (as analyte) were injected over this captured antibody surface. For bivalent (avidity-driven) kinetic experiments, biotinylated peptides corresponding to the Naᵥ 1.7 3-1, 3-3, or paddle loop sequences were captured on a NeutrAvidin sensor surface, and anti-Naᵥ 1.7 antibodies (as analyte) were injected over this surface. Following the capture step, each analyte was individually injected at several concentrations over its respective capture surface, and changes in bound surface units (RU) were monitored. The dissociation rate is independent of the concentration of analyte used in the experiment, and the dissociation rate constant (kd) was determined from the change in antibody-bound analyte RU over time. The Biacore kinetic data were obtained using a double referencing procedure. The double referencing was conducted by first subtracting any interaction of the analyte over the reference surface (i.e., the anti-Fc coupled surface alone or the NeutrAvidin surface alone), thereby correcting for nonspecific binding to capture surface and for refractive index changes. Control buffer injections (no analyte) over the antibody- or peptide-captured surfaces were also performed to allow subtraction of RU signal changes resulting from the natural dissociation of captured binding partner from the sensor surface. The kinetic parameters were obtained by globally fitting the data for all concentrations tested for a given peptide or antibody to a 1:1 binding model using Biacore T100 Evaluation Software version 2.0.2. The KD was calculated as the dissociation rate constant divided by the association rate constant (KD=kd/kₐ). The dissociative half-life (t_{1/2}) was calculated from the dissociation rate constant (t_{1/2}=In2/kd).
# [3] = biological target: T2, N-Term Biotin Nav1.7 (3-1) peptide, …; assay: SPR, captured antibody, peptide analyte
# Method: as §1
# [4] = biological target: T3, N-Term Biotin Nav1.7 (3-1) peptide, …; assay: SPR, captured antibody, peptide analyte
# Method: as §1
# [5] = biological target: T4, Native Nav1.7 (3-1) peptide, rat; assay: SPR, captured antibody, peptide analyte
# Method: as §1
# [6] = biological target: T5, C-term Biotin Nav1.7 (3-1) peptide, …; assay: SPR, captured biotin-peptide, antibody analyte
# Method: as §1
# [7] = biological target: T2, N-Term Biotin Nav1.7 (3-1) peptide, …; assay: ELISA on coated peptide, antibody 1 ug/ml, OD450 grade
# Method: (§2) Anti-Naᵥ 1.7 antibodies were tested for their ability to bind to the Naᵥ 1.7 peptides. The various peptides were coated overnight onto 96-well Nunc Immunosorp plates at a concentration of 4 μg/mL in PBS, followed by blocking for 1 hour in a suitable blocking agent. For biotinylated peptides, avidin was first coated on Nunc Immunosorp plates at 2 μg/mL in PBS overnight, followed by blocking as described, and the plate was then coated with biotinylated peptides at a concentration of 0.4 μg/mL and incubated for 1 hour at room temperature. Purified anti-Naᵥ 1.7 antibodies were diluted to a final concentration of 0.1 μg/mL and 1.0 μg/mL and added to the wells of the coated microtiter plates followed by incubation for 1 hour at room temperature. Bound antibodies were detected with horseradish peroxidase (HRP) conjugated anti-mouse or anti-human IgG (Jackson Immuno Research Lab, West Grove, Pa.) depending on the antibody species and developed by colorimetric response using tetramethylbenzidine (TMB) substrate (BD Biosciences). Absorbance was read at OD₄₅₀ on a plate reader for 0.1 second.
# (§3) Values in Table 11 represent absolute binding ranges (at OD450) to plate-coated peptides for antibodies added at 1 μg/ml as follows: OD450<0.2: −; 0.2<OD450<1: +; 1<OD450<2: ++; 2<OD450<4: +++; NT: Not Tested.
# [8] = biological target: T6, N-Term Biotin-Nav1.7 (3-1) peptide, …; assay: as above
# Method: as §2, §3
# [9] = biological target: T4, Native Nav1.7 (3-1) peptide, rat; assay: as above
# Method: as §2, §3
Binder,"Current blocking (Average % inhibition), IonWorks Quattro, 223 nM antibody [1] [%]",Kd [2] [nM],t1/2 [2] [min],Kd [3] [nM],t1/2 [3] [min],binding result [4],Kd [5] [nM],t1/2 [5] [min],Kd [6] [nM],t1/2 [6] [min],binding result [5],OD450 [7] [od],OD450 [8] [od],Kd [4] [nM],t1/2 [4] [min],OD450 [9] [od]
B1,43.5,2.73,30.2,0.54,111,no binding,77,0.56,0.614,118,–,–,–,–,–,–
B2,–,6.58,12.5,0.439,128,no binding,178,0.39,0.703,86.9,–,–,–,–,–,–
B3,31,188,0.8,29.3,3.1,no binding,–,–,0.443,73.2,no binding,–,–,–,–,–
B4,48,–,–,–,–,–,–,–,–,–,–,2 to 4,2 to 4,–,–,–
B5,–,–,–,–,–,–,127,0.32,–,–,–,–,–,12,964,2 to 4
B6,–,38.9,3.3,13.1,6,–,–,–,1.04,92.9,–,2 to 4,2 to 4,–,–,–
B7,–,–,–,–,–,–,176,0.48,–,–,–,–,–,–,–,1 to 2
B8,17.5,21.4,2.5,3.68,4.7,–,107,0.17,0.334,114,–,–,–,8.98,3.4,–
B9,–,–,–,–,–,no binding,–,–,–,–,no binding,–,–,–,–,–
B10,34,236,0.16,42.6,0.34,–,–,–,200,0.3,–,–,–,–,–,–
B11,57,13.2,20.7,2.5,34,–,–,–,0.0252,108,no binding,–,–,–,–,–
